“And” between values parts separate entries of the source, which are not always exact repeats. Identical values can stand only once.

This experiment addresses sfpCHIR-AB1, soluble fusion protein of the extracellular region of CHIR-AB1 and human IgG-Fc (chicken). Briefly: SPR; 90RU of purified sfpCHIR-AB1 immobilised on a CM5 sensor surface; purified IgY-Fc (Fcυ2–4) mutants 25–400 nM flowed over; Biacore 3000; 1:1 binding model. A general note: SPR reads the build-up and loss of mass on a sensor chip optically.
In turn, “chicken IgY-Fc (Fcυ2–4) E437H/L440R (domain or fragment)” had a Ka of 1.8e+08 M⁻¹, an off-rate constant (koff) of 0.0021 s⁻¹ and a kon of 380000 M⁻¹ s⁻¹.

“chicken IgY-Fc (Fcυ2–4) F557R (domain or fragment)” returned a Ka of 7.3e+07 M⁻¹, an off-rate (koff) of 0.013 s⁻¹ and a kon of 920000 M⁻¹ s⁻¹.

With “chicken IgY-Fc (Fcυ2–4) H495E (domain or fragment)”, the Ka is 1.1e+08 M⁻¹, the koff amounted to 0.0015 s⁻¹ and the association rate constant (kon) was 170000 M⁻¹ s⁻¹.

The substance “chicken IgY-Fc (Fcυ2–4) N376D (domain or fragment)” registered a Ka of 2e+08 M⁻¹, a koff of 0.0021 s⁻¹ and an association rate constant (kon) of 410000 M⁻¹ s⁻¹.

“chicken IgY-Fc (Fcυ2–4) R490E (domain or fragment)” had a Ka of 4.5e+08 M⁻¹, a koff of 0.00051 s⁻¹ and a kon of 230000 M⁻¹ s⁻¹.

In turn, “chicken IgY-Fc (Fcυ2–4) R496E (domain or fragment)” had a Ka of 1.8e+08 M⁻¹, a koff of 0.0013 s⁻¹ and a kon of 220000 M⁻¹ s⁻¹.

In turn, “chicken IgY-Fc (Fcυ2–4) R556E (domain or fragment)” gave a Ka of 9.3e+06 M⁻¹, an off-rate constant (koff) of 0.0011 s⁻¹ and a kon of 11000 M⁻¹ s⁻¹.

As to “chicken IgY-Fc (Fcυ2–4) S346D/C347P/S348R/P349G (domain or fragment)”, the Ka came to 9.5e+07 M⁻¹, the koff worked out at 0.0044 s⁻¹ and the kon is 420000 M⁻¹ s⁻¹.

For “chicken IgY-Fc fragment containing heavy chain constant domains 2, 3 and 4 (Fcυ2–4), wild type (domain or fragment)”, the Ka was 2.1e+08 M⁻¹ and 1.4e+08 M⁻¹; the koff was 0.0012 s⁻¹ and 0.0021 s⁻¹; the kon is 300000 M⁻¹ s⁻¹ and 260000 M⁻¹ s⁻¹.

As usually defined, the koff is a measure of how fast the partners let go of each other. A higher koff goes with fast dissociation. For orientation: kon means the second-order rate constant of association. The low end stands for slower complex formation, the high end for faster complex formation.

These data come from PMC2795851.
